In patent US20050282743A1 (ARBOR VITA, published 2005):

Assays:
[1] = biological target: HPV E6 #66 (cysteine-free) (HPV strain 66); assay: G assay titration, PDZ 1 ug/ml
[2] = biological target: HPV E6 #35 (cysteine-free) (HPV strain 35); assay: G assay titration, PDZ 0.5 ug/ml
HPV E6 58 (modified) [3] = biological target: T1, HPV E6 58 (modified) (HPV strain 58); assay: G assay titration, PDZ 0.5 ug/ml
T1 construct: also called AA75.1

HPV E6 33 (modified) = biological target: T2, HPV E6 33 (modified) (HPV strain 33); assay: G assay titration, PDZ 0.5 ug/ml
T2 construct: also called AA72.1

[4] = biological target: HPV E6 #35 (cysteine-free) (HPV strain 35); assay: G assay titration, PDZ 5 ug/ml
[5] = biological target: HPV E6 #66 (cysteine-free) (HPV strain 66); assay: G assay titration, PDZ 0.5 ug/ml
HPV E6 58 (modified) [6] = biological target: T1, HPV E6 58 (modified); assay: G assay titration, PDZ 5 ug/ml
HPV E6 58 (modified) [7] = biological target: T1, HPV E6 58 (modified); assay: G assay titration, PDZ 3 ug/ml
[8] = biological target: HPV E6 #57 (cysteine-free) (HPV strain 57); assay: G' assay; Classification 0 = A450 nm 0, not found to interact
HPV E6 77 (modified) = biological target: T3, HPV E6 77 (modified) (HPV strain 77); assay: as above
T3 construct: also called AA78.1

[9] = biological target: HPV E6 #66 (cysteine-free) (HPV strain 66); assay: G assay titration, PDZ 5 ug/ml

B1: GST-TIP1 PDZ domain 1 (Table 9 insert) (other, not shown: a dimerising Fc or GST)
chain: QRVEIHKLRQGENLILGFSIGGGIDQDPSQNPFSEDKTDKGIYVTRVSEGGPAEIAGLQIGDKIMQVNGWDMTMVTHDQARKRLTKRSEEVVRLLVTRQSLQK
notes: also called TIP-1 1/1
Kd [1]: 5 µM

B2: GST-DLG2 PDZ domain 2 (other, not shown: a dimerising Fc or GST)
chain: ISVVEIKLFKGPKGLGFSIAGGVGNQHIPGDNSIYVTKIIDGGAAQKDGRLQVGDRLLMVNNYSLEEVTHEEAVAILKNTSEVVYLKVGNPTTI
Kd [2]: 0.2 µM

B3: GST-Outer Membrane PDZ domain 1 (other, not shown: a dimerising Fc or GST)
chain: LLTEEEINLTRGPSGLGFNIVGGTDQQYVSNDSGIYVSRIKENGAAALDGRLQEGDKILSVNGQDLKNLLHQDAVDLFRNAGYAVSLRVQHRLQVQNGIHS
Kd (HPV E6 58 (modified) [3]): 5 µM

B4: GST-KIAA1095 PDZ domain 1 (other, not shown: a dimerising Fc or GST)
chain: QGEETKSLTLVLHRDSGSLGFNIIGGRPSVDNHDGSSSEGIFVSKIVDSGPAAKEGGLQIHDRIIEVNGRDLSRATHDQAVEAFKTAKEPIVVQVLRRTPRTKMFTP
Kd (HPV E6 33 (modified)): 5 µM

B5: GST-KIAA1526 PDZ domain 1 (other, not shown: a dimerising Fc or GST)
chain: PDSAGPGEVRLVSLRRAKAHEGLGFSIRGGSEHGVGIYVSLVEPGSLAEKEGLRVGDQILRVNDKSLARVTHAEAVKALKGSKKLVLSVYSAGRIPGGYVTNH
Kd [4]: 1 µM

B6: GST-KIAA0147 PDZ domain 3 (other, not shown: a dimerising Fc or GST)
chain: ILEGPYPVEEIRLPRAGGPLGLSIVGGSDHSSHPFGVQEPGVFISKVLPRGLAARSGLRVGDRILAVNGQDVRDATHQEAVSALLRPCLELSLLVRRDPAEFIVTD
Kd [4]: 0.35 µM

B7: GST-NeDLG PDZ domains 1, 2 (other, not shown: a dimerising Fc or GST)
chain: YEEIVLERGNSGLGFSIAGGIDNPHVPDDPGIFITKIIPGGAAAMDGRLGVNDCVLRVNEVDVSEVVHSRAVEALKEAGPVVRLVVRRRQPPPETIMEVNLLKGPKGLGFSIAGGIGNQHIPGDNSIYITKIIEGGAAQKDGRLQIGDRLLAVNNTNLQDVRHEEAVASLKNTSDMVYLKVAKPGSL
notes: domain: PDZ domains 1-2; also called NeDLG 1, 2
Kd [5]: 1 µM

B8: GST-NeDLG PDZ domain 3 (other, not shown: a dimerising Fc or GST)
chain: ILLHKGSTGLGFNIVGGEDGEGIFVSFILAGGPADLSGELRRGDRILSVNGVNLRNATHEQAAAALKRAGQSVTIVAQYRPEEYSRFESKIHDLREQMMNSSMSSGSGSLRTSEKRSLE
Kd (HPV E6 58 (modified) [6]): 5 µM

B9: GST-Atrophin-1 Interacting Protein PDZ domain 1 (other, not shown: a dimerising Fc or GST)
chain: REKPLFTRDASQLKGTFLSTTLKKSNMGFGFTIIGGDEPDEFLQVKSVIPDGPAAQDGKMETGDVIVYINEVCVLGHTHADVVKLFQSVPIGQSVNLVLCRGYP
notes: also called Atrophin-1 Inter; Prot; Atr-P (1/6)
Kd (HPV E6 33 (modified)): 5 µM

B10: GST-ERBIN PDZ domain 1 (other, not shown: a dimerising Fc or GST)
chain: QGHELAKQEIRVRVEKDPELGFSISGGVGGRGNPFRPDDDGIFVTRVQPEGPASKLLQPGDKIIQANGYSFINIEHGQAVSLLKTFQNTVELIIVREVSS
Kd [4]: 0.4 µM

B11: GST-MUPP1 PDZ domain 10 (other, not shown: a dimerising Fc or GST)
chain: LPGCETTIEISKGRTGLGLSIVGGSDTLLGAIIIHEVYEEGAACKDGRLWAGDQILEVNGIDLRKATHDEAINVLRQTPQRVRLTLYRDEAPYKE
Kd (HPV E6 58 (modified) [7]): 5 µM

B12: GST-NeDLG PDZ domain 2 (other, not shown: a dimerising Fc or GST)
chain: ITLLKGPKGLGFSIAGGIGNQHIPGDNSIYITKIIEGGAAQKDGRLQIGDRLLAVNNTNLQDVRHEEAVASLKNTSDMVYLKVAKPGSLE
Kd [5]: 3.5 µM

B13: GST-BAI-1 Associated Protein PDZ domain 2 (other, not shown: a dimerising Fc or GST)
chain: PSELKGKFIHTKLRKSSRGFGFTVVGGDEPDEFLQIKSLVLDGPAALDGKMETGDVIVSVNDTCVLGHTHAQVVKIFQSIPIGASVDLELCRGYPLPFDPDDPN
notes: also called BAI-1 (2/6)
Kd [5]: 3 µM | binding result [8]: no binding (tested: 10 uM peptide) | binding result (HPV E6 77 (modified)): no binding (tested: 10 uM peptide)

B14: GST-KIAA0807(S) PDZ domain 1 (other, not shown: a dimerising Fc or GST)
chain: ISALGSMRPPIIIHRAGKKYGFTLRAIRVYMGDSDVYTVHHMVWHVEDGGPASEAGLRQGDLITHVNGEPVHGLVHTEVVELILKSGNKVAISTTPLENSS
Kd [9]: 5 µM | Kd [2]: 0.1 µM

B15: GST-PSD95 PDZ domain 3 (other, not shown: a dimerising Fc or GST)
chain: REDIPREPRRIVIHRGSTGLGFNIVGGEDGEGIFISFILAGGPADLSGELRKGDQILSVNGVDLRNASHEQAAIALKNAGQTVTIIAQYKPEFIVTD
Kd (HPV E6 33 (modified)): 5 µM

B16: GST-DLG1 PDZ domain 2 (other, not shown: a dimerising Fc or GST)
chain: IQLIKGPKGLGFSIAGGVGNQHIPGDNSIYVTKIIEGGAAHKDGKLQIGDKLLAVNNVCLEEVTHEEAVTALKNTSDFVYLKVAKPTSMYMNDGN
Kd (HPV E6 33 (modified)): 5 µM

B17: GST-FLJ00011 PDZ domain 1 (other, not shown: a dimerising Fc or GST)
chain: KNPSGELKTVTLSKMKQSLGISISGGIESKVQPMVKIEKIFPGGAAFLSGALQAGFELVAVDGENLEQVTHQRAVDTIRRAYRNKAREPMELVVRVPGPSPRPSPSD
Kd [4]: 0.35 µM

B18: GST-Atrophin-1 Interacting Protein PDZ domain 2 (other)
chain: LSGATQAELMTLTIVKGAQGFGFTIADSPTGQRVKQILDIQGCPGLCEGDLIVEINQQNVQNLSHTEVVDILKDCPIGSETSLIIHRGGFF
Kd [4]: 0.8 µM
